Laboratory results reported in patent publication US20230024461A1, “METHODS FOR DUAL DNA/PROTEIN TAGGING OF OPEN CHROMATIN” (Beth Israel Deaconess Medical Center, Inc., priority 2019, published 2023).

Columns and labels:
K562 nuclei = test: iDAPT protein labeling, western blot of labeled nuclear lysates; assay type: biochemical, human
Method: (§1) DNA and protein tagging by iDAPT. All iDAPT proteomic labeling assays were performed as described below unless indicated otherwise. 2.5 μmol MEDS-A/B, 2 μmol enzyme, and 1 μmol hemin chloride per channel were incubated at room temperature for 1 hour. 1e7 cells per sample were washed (500×g, 5 minutes, 4° C.), lysed and triturated in 100 μL LB1 (10 mM Tris-HCl pH 7.5, 10 mM NaCl, 3 mM MgCl2, 1% BSA, 0.01% digitonin, 0.1% Tween-20, 0.1% NP-40, and 1× cOmplete EDTA-free protease inhibitor cocktail [Roche]) for 3 minutes, and subsequently supplemented with an additional 1 mL of LB2 (10 mM Tris-HCl pH 7.5, 10 mM NaCl, 3 mM MgCl2, 1% BSA, 0.1% Tween-20, and 1× protease inhibitor). Nuclei were pelleted (500×g, 10 minutes, 4° C.), resuspended with tagmentation reaction mixture (20% dimethylformamide, 10 mM MgCl2, 20 mM Tris-HCl pH 7.5, 33% 1×PBS, 1% BSA, 0.01% digitonin, 0.1% Tween-20, 500 μM biotin-phenol, 1× protease inhibitor, and 2 pmol enzyme equivalent of enzyme:DNA:heme complex in a total volume of 500 μL), and incubated at 37° C. for 30 minutes with agitation on a thermomixer (1,000 rpm). 5 μL of tagmentation mix was saved for quality assessment as described above for ATAC-seq/iDAPT-seq sample preparation. The remaining nuclear suspension was then washed 2× with 1×PBS supplemented with 500 μM biotin-phenol, 1% BSA, 0.1% Tween-20, and 1× protease inhibitor (3000×g, 5 minutes, 4° C.) and labeled with 1 mM hydrogen peroxide and 500 μM biotin-phenol for 1 minute in 1×PBS with 1× protease inhibitor in a volume of 500 μL. Peroxidation reactions were quenched with 500 μL 2× quenching buffer (10 mM Trolox, 20 mM sodium ascorbate, 20 mM NaN3, and 1× protease inhibitor in 1×PBS). Labeled nuclei were then pelleted, washed with 1× quenching buffer, resuspended in 500 μL RIPA containing protease inhibitors, and frozen at −80° C. Lysates were thawed on ice, sonicated via a Sonic Dismembrator 100 (Fisher Scientific, setting 3, 15 seconds, 4 pulses), and incubated on ice for 30 minutes after the addition of 1 μL benzonase (EMD Millipore). Lysates were clarified by centrifugation (15,000×g, 20 minutes, 4° C.), quantified via the detergent-compatible Bradford assay (Thermo Fisher Scientific), and subjected to either Western blotting or quantitative mass spectrometry analyses as described below. For NB4 cell analysis, an additional endogenous peroxidase blocking step was added after nuclear extraction and before tagmentation: nuclei were resuspended in 500 μL 1×PBS containing 1% BSA, 0.03% hydrogen peroxide, and 0.1% NaN3 and incubated on ice for 30 minutes. Nuclei were pelleted and washed 4× with 1×PBS/1% BSA (3000×g, 5 minutes, 4° C.). Residual hydrogen peroxide was monitored by colorimetric assessment of supernatant via Quantofix peroxides test stick (Sigma).
(§2) Western blotting analysis. Whole cell or nuclear lysates were generated by resuspending cells or nuclei in RIPA (Boston BioProducts) supplemented with 1× cOmplete EDTA-free protease inhibitor cocktail (Roche). […] Lysates were clarified by centrifugation (15,000×g, 20 minutes, 4° C.) and their concentrations quantified via the detergent-compatible Bradford assay (Thermo Fisher Scientific). […] Membranes were blocked with 3% milk in PBS-T and incubated overnight with primary antibody and subsequently with secondary antibody after brief washing with PBS-T. Chemiluminescence was determined by applying ECL Western Blotting detection reagent (GE Healthcare) to membranes and imaging on an Amersham Imager 600 (GE Healthcare). […]

HEK293T nuclei = test: as above; assay type: biochemical, human; details: extracted HEK293T nuclei
Method: as §1, §2

B1: TP3: Tn5 transposase-AEAAAKEAAAKA linker-APEX2 peroxidase fusion, C-terminal FLAG; amino acid SEQ ID NO: 27 (protein)
chain: MITSALHRAADWAKSVFSSAALGDPRRTARLVNVAAQLAKYSGKSITISSEGSKAMQEGAYRFIRNPNVSAEAIRKAGAMQTVKLAQEFPELLAIEDTTSLSYRHQVAEELGKLGSIQDKSRGWWVHSVLLLEATTFRTVGLLHQEWWMRPDDPADADEKESGKWLAAAATSRLRMGSMMSNVIAVCDREADIHAYLQDKLAHNERFVVRSKHPRKDVESGLYLYDHLKNQPELGGYQISIPQKGVVDKRGKRKNRPARKASLSLRSGRITLKQGNITLNAVLAEEINPPKGETPLKWLLLTSEPVESLAQALRVIDIYTHRWRIEEFHKAWKTGAGAERQRMEEPDNLERMVSILSFVAVRLLQLRESFTPPQALRAQGLLKEAEHVESQSAETVLTPDECQLLGYLDKGKRKRKEKAGSLQWAYMAIARLGGFMDSKRTGIASWGALWEGWEALQSKLDGFLAAKDLMAQGIKIAEAAAKEAAAKAGKSYPTVSADYQDAVEKAKKKLRGFIAEKRCAPLMLRLAFHSAGTFDKGTKTGGPFGTIKHPAELAHSANNGLDIAVRLLEPLKAEFPILSYADFYQLAGVVAVEVTGGPKVPFHPGREDKPEPPPEGRLPDPTKGSDHLRDVFGKAMGLTDQDIVALSGGHTIGAAHKERSGFEGPWTSNPLIFDNSYFTELLSGEKEGLLQLPSDKALLSDPVFRPLVDKYAADEDAFFADYAEAHQKLSELGFADADYKDDDDK
modifications: C-terminal FLAG
- biotin labeling (K562 nuclei): highest levels of labeling
- peroxidase-dependent biotin signal (HEK293T nuclei): strong peroxidase-dependent biotin signal
